We go through two molecules from US20220220200A1 (NANJING IASO BIOTECHNOLOGY, published 2022).

Experiment [1] deals with T1, Biotinylated Human BCMA/TNFRSF17 Protein, Fc Tag, Avi Tag (BCMA-hFc-Bio) (human, UniProt Q02223 1-54, biotinylated (Avitag)).
T1 construct: Bought protein; also called control antigen BCMA; unrelated antigen BCMA; not shown: Fc tag (hFc) and Avi tag
T1 sequence (looked up): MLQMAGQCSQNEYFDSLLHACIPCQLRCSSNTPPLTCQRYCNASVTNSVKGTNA
Nature of the experiment: phage ELISA, biotinylated antigen on streptavidin plate. The protocol:
(§1) In ELISA preliminary screening, the streptavidin-biotin binding allowed the biotinylated target protein (CD19-hFc-Bio) and the control protein (BCMA-hFc-Bio) to be closer to native antigen conformation in the reaction solution. Clones that only bound to CD19-hFc-Bio but not to BCMA-hFc-Bio and streptavidin were considered specific. The FACS preliminary screening was performed using a cell line Raji with high expression of CD19 and Raji-CD19ko with knockout of CD19 molecules, and clones that only bind to Raji cells but not to Raji-CD19ko cells were considered specific. Through the two preliminary screenings based on ELISA and FACS respectively, we could obtain candidate antibodies that can not only bind to the recombinantly expressed CD19 protein but also recognize the native CD19 molecules on the cell surface for further screening.
(§2) Monoclonal antibodies were randomly selected from the enriched phage antibody pool, packaged into phages, and the binding of the monoclonal phage to CD19-hFc-Bio protein and BCMA-hFc-Bio protein was detected by phage ELISA to find CD19-specific phage antibody clones. Control 1 is FMC-63 ([…] anti-human CD19 phage antibody clone); and control 2 is non-CD19-bound scFv phage antibody clone. […]
Background: ELISA stands for enzyme-linked immunosorbent assay.

A further experiment deals with T2, Streptavidin (UniProt P22629 37-163, limits assumed).
T2 construct: Plate coating in the phage ELISA, tested as a control antigen; also called Strepavidin
As to the kind of experiment: phage ELISA, streptavidin-coated plate. The protocol: as §1, §2

T2 sequence (P22629 37-163 limits assumed): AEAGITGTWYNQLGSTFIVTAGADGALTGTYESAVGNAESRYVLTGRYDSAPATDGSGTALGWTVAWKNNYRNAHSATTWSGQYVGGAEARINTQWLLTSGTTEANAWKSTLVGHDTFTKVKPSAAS

B1: #62 scFv phage antibody clone (scFv)
scFv: QSVVTQPPSVSGAPGQRVTISCTGSSSNIGAGYDVHWYQQLPGTAPKLLIYENTNRPSGVPDRFSGSKSGTSASLAITGLQAEDEADYYCQSYDSSLSGWRVFGGGTKLTVLGSRGGGGSGGGGSGGGGSLEMAEVQLVQSGAEVKKPGESLKISCKGSGYSFTNSWIGWVRQMPGKGLEWMGLIYPDDSDTRYSPSFQGQVTISADSAINTAYLQWSSLKASDTAMYYCARQSTYIYGGYYDTWGQGTLVTVSS
notes: The phage coat fusion is not described; also called clone #62; phage #62
With B1, the binding result (in experiment [1]; with Streptavidin) was “no binding” throughout.

B2: #78 scFv phage antibody clone (scFv)
scFv: QAVLTQPPSVSEAPRQRVTISCSGSSSNIGNNAVSWYQQLPGKAPKLLIYYDDLLPSGVSDRFSGSKSGTSASLAISGLQSEDEADYYCAAWDDSLNGWVFGGGTKVTVLGSRGGGGSGGGGSGGGGSLEEVQLVQSGAEVKKPGESLKISCKGSGYSFTSYWIGWVRQMPGKGLEWMGIIYPGDSDTRYSPSFQGQVTISADKSISTAYLQWSSLKASDTAMYYCARLSYSWSSWYWDFWGQGTLVTVSS
notes: The phage coat fusion is not described; also called clone #78; phage #78
Turning to B2, the binding result (in experiment [1]; in the experiment with Streptavidin) was “no binding” throughout.
